Data from paper PMC3045311.

What was measured:
[1] = target: Acrophialophora nainiana xylanases
[2] = target: Aspergillus niger xylanases
[3] = target: Acrophialophora nainiana xylanases; remark: listed apart in the source

Substance: Coffea arabica Chitinase-like Xylanase Inhibitor Protein (natural protein)
- Inhibition (%) of xylanase activity (oat spelt xylan, DNS reagent, Abs 540 nm; enzymes:inhibitor ratio 12:1 w/w) [1]: 56%
- Inhibition (%) of xylanase activity (oat spelt xylan, DNS reagent, Abs 540 nm; 60 μg xylanases, 5 μg CaclXIP, 12:1 w/w, 50°C, 30 min) [2]: 19.5%
- Inhibition (%) of xylanase activity (oat spelt xylan, DNS reagent, Abs 540 nm; 60 μg xylanases, 5 μg CaclXIP, 12:1 w/w, 50°C, 30 min) [3]: 57%
